pKd: −log10 of the molar value. Ends that are not written are not given here.
Experiments:
[1] = biological target: HER3 (UniProt P21860); assay: SPR
[2] = biological target: recombinant extracellular domain of EGFR protein (Homo sapiens, UniProt P00533); assay: SPR binding to immobilized EGFR extracellular domain; conditions: peptide 0 to 200 μM as analyte

HER3, sequence (P21860 20-1342): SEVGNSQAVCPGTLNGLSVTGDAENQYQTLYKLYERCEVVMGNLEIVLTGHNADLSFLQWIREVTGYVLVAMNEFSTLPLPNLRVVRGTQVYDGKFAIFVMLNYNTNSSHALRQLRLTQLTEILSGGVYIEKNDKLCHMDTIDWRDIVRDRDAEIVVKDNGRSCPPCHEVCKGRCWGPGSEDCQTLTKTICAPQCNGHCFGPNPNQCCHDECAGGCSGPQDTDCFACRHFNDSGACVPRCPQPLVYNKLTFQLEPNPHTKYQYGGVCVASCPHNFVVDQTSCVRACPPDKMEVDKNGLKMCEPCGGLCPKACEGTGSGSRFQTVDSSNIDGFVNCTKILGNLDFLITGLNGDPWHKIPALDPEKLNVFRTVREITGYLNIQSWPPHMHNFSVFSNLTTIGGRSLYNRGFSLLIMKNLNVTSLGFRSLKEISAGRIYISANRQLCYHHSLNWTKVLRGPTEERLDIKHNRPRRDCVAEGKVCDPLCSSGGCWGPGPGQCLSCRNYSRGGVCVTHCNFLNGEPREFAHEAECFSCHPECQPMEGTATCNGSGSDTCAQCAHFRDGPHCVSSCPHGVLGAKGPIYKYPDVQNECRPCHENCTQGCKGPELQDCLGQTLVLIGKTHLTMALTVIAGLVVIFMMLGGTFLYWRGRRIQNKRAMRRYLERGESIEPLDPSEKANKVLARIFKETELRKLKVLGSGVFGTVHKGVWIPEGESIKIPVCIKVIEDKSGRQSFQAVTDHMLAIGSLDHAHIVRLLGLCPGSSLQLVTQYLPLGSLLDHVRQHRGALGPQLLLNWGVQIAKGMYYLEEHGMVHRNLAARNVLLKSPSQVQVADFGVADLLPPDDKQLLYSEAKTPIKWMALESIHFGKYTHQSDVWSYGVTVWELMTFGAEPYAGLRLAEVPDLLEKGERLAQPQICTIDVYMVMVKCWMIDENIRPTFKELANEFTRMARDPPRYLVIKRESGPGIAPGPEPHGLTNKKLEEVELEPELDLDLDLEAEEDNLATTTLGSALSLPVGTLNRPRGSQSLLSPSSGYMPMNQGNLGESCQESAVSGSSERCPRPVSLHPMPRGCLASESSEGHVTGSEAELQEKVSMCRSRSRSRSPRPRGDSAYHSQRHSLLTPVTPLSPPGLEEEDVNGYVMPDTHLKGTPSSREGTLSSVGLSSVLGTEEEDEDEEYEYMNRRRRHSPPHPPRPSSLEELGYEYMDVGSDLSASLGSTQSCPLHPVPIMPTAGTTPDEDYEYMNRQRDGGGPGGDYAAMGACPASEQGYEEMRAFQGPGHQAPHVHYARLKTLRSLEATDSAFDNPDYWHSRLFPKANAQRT

Row | pKd [1] | Substance | binding to EGFR as seen by SPR [2]
1 | 4.30 | Cyclo.L1.1: Cyclo(K(N3)larllt) (peptide) | –
2 | – | GLARLLT-CONH2 (GLARLLT-NH2) [Peptide L1.6] | exhibited binding to the EGFR protein in a concentration-dependent manner
3 | – | tllarl-CONH2 [Peptide L1.3] | exhibited binding to the EGFR protein in a concentration-dependent manner

Source: paper PMC5775921 (Chemical biology & drug design, 2017)
